± gives the uncertainty stated by the source.
B1: Pre-mRNA-processing factor 40 homolog B, residues 274 to 332; numbered along this chain, Q6NWY9 (parent)
chain: SNREKAKQAFKELLRDKAVPSNASWEQAMKMVVTDPRYSALPKLSEKKQAFNAYKAQRE

Variants of: B1
Assay: abundance fitness (aPCA) (normalised: wild type 0, dead -1); higher = more abundant; growth selection in yeast, the domain comes from the species named
Conditions: Homo sapiens

A40D and A40E are within error of each other in abundance fitness: -0.739 ± 0.34 for the first, -0.42 ± 0.19 for the second.

A40G and A40K are within error of each other in abundance fitness: -0.206 ± 0.14 for the first, -0.27 ± 0.22 for the second.

A40L and A40M are within error of each other in abundance fitness: 0.008 ± 0.12 for the first, 0.177 ± 0.33 for the second.

A40P and A40Q are within error of each other in abundance fitness: -0.675 ± 0.23 for the first, -0.417 ± 0.34 for the second.

A40R and A40S are within error of each other in abundance fitness: -0.304 ± 0.13 for the first, 0.005 ± 0.19 for the second.

A40T and A40V are within error of each other in abundance fitness: -0.312 ± 0.27 for the first, -0.075 ± 0.15 for the second.

A40W and A40Y are within error of each other in abundance fitness: -0.588 ± 0.18 for the first, -0.368 ± 0.27 for the second.

L41A and L41C are within error of each other in abundance fitness: -0.451 ± 0.065 for the first, -0.438 ± 0.14 for the second.

Compared with L41D, L41E is higher in abundance fitness: -0.439 ± 0.12 for the first, -0.189 ± 0.084 for the second.

Going from L41H to L41I, the abundance fitness rises from -0.785 ± 0.23 to -0.268 ± 0.16.

L41K and L41M are within error of each other in abundance fitness: -0.372 ± 0.095 for the first, -0.176 ± 0.12 for the second.

L41N and L41P are within error of each other in abundance fitness: -0.443 ± 0.17 for the first, -0.295 ± 0.077 for the second.

First: L41Q
Second: L41R
The abundance fitness of the first is higher: -0.295 ± 0.12 for the first, -0.552 ± 0.061 for the second.

Going from L41S to L41T, the abundance fitness rises from -0.519 ± 0.065 to -0.214 ± 0.094.

Going from L41V to L41W, the abundance fitness falls from -0.16 ± 0.073 to -0.486 ± 0.081.

L41Y and P42A are within error of each other in abundance fitness: -0.34 ± 0.2 for the first, -0.147 ± 0.07 for the second.

Going from P42C to P42D, the abundance fitness rises from -0.518 ± 0.1 to -0.023 ± 0.1.

Compared with P42E, P42F is lower in abundance fitness: 0.018 ± 0.079 for the first, -0.749 ± 0.21 for the second.

Going from P42G to P42H, the abundance fitness falls from -0.156 ± 0.053 to -0.477 ± 0.22.

P42I and P42K are within error of each other in abundance fitness: -0.283 ± 0.16 for the first, -0.13 ± 0.18 for the second.

P42L and P42M are within error of each other in abundance fitness: -0.287 ± 0.086 for the first, -0.189 ± 0.11 for the second.

First: P42N
Second: P42Q
The abundance fitness of the first is lower: -0.628 ± 0.17 for the first, -0.316 ± 0.14 for the second.

Compared with P42R, P42S is higher in abundance fitness: -0.326 ± 0.059 for the first, -0.131 ± 0.078 for the second.

Compared with P42T, P42V is lower in abundance fitness: -0.093 ± 0.11 for the first, -0.418 ± 0.071 for the second.

Going from P42W to K43A, the abundance fitness rises from -0.602 ± 0.084 to -0.014 ± 0.057.

K43C and K43D are within error of each other in abundance fitness: 0.037 ± 0.12 for the first, 0.11 ± 0.17 for the second.

Going from K43E to K43F, the abundance fitness falls from 0.035 ± 0.075 to -0.593 ± 0.17.

Compared with K43G, K43H is lower in abundance fitness: 0.001 ± 0.049 for the first, -0.335 ± 0.15 for the second.

Going from K43I to K43L, the abundance fitness rises from -0.655 ± 0.2 to -0.196 ± 0.067.

K43M and K43N are within error of each other in abundance fitness: -0.115 ± 0.081 for the first, -0.105 ± 0.14 for the second.

Compared with K43P, K43Q is higher in abundance fitness: -0.359 ± 0.078 for the first, -0.091 ± 0.081 for the second.

First: K43R
Second: K43S
The abundance fitness of the first is lower: -0.064 ± 0.049 for the first, 0.122 ± 0.076 for the second.

First: K43T
Second: K43V
The abundance fitness of the first is higher: 0.206 ± 0.076 for the first, -0.482 ± 0.063 for the second.

Going from K43W to K43Y, the abundance fitness falls from -0.362 ± 0.068 to -0.691 ± 0.25.

L44A and L44D are within error of each other in abundance fitness: -0.12 ± 0.072 for the first, -0.288 ± 0.13 for the second.

Compared with L44E, L44F is lower in abundance fitness: 0.137 ± 0.089 for the first, -0.574 ± 0.31 for the second.

Compared with L44H, L44I is higher in abundance fitness: -0.736 ± 0.17 for the first, -0.101 ± 0.13 for the second.

L44K and L44M are within error of each other in abundance fitness: -0.289 ± 0.11 for the first, -0.087 ± 0.1 for the second.

L44N and L44P are within error of each other in abundance fitness: -0.448 ± 0.19 for the first, -0.269 ± 0.084 for the second.

L44Q and L44R are within error of each other in abundance fitness: -0.219 ± 0.086 for the first, -0.36 ± 0.062 for the second.

L44S and L44T are within error of each other in abundance fitness: -0.175 ± 0.076 for the first, -0.337 ± 0.12 for the second.

Going from L44V to L44W, the abundance fitness falls from -0.107 ± 0.077 to -0.561 ± 0.089.

Compared with L44Y, S45A is higher in abundance fitness: -0.809 ± 0.22 for the first, -0.136 ± 0.078 for the second.

First: S45C
Second: S45D
The abundance fitness of the first is lower: -0.484 ± 0.18 for the first, -0.097 ± 0.098 for the second.

S45E and S45F are within error of each other in abundance fitness: -0.027 ± 0.1 for the first, -0.233 ± 0.14 for the second.

S45G and S45H are within error of each other in abundance fitness: -0.265 ± 0.062 for the first, -0.016 ± 0.22 for the second.

First: S45I
Second: S45K
The abundance fitness of the first is lower: -0.458 ± 0.15 for the first, -0.117 ± 0.1 for the second.

S45L and S45P are within error of each other in abundance fitness: -0.541 ± 0.092 for the first, -0.369 ± 0.1 for the second.

S45Q and S45R are within error of each other in abundance fitness: -0.15 ± 0.11 for the first, -0.303 ± 0.072 for the second.

First: S45T
Second: S45V
The abundance fitness of the first is higher: -0.211 ± 0.086 for the first, -0.457 ± 0.078 for the second.

S45W and E46A are within error of each other in abundance fitness: -0.427 ± 0.095 for the first, -0.466 ± 0.07 for the second.

First: E46C
Second: E46D
The abundance fitness of the first is lower: -0.519 ± 0.12 for the first, 0.027 ± 0.14 for the second.

Compared with E46F, E46G is higher in abundance fitness: -1.03 ± 0.15 for the first, -0.694 ± 0.055 for the second.

E46H and E46I are within error of each other in abundance fitness: -0.724 ± 0.18 for the first, -0.872 ± 0.17 for the second.

E46K and E46L are within error of each other in abundance fitness: -0.939 ± 0.17 for the first, -0.73 ± 0.085 for the second.

E46M and E46N are within error of each other in abundance fitness: -0.413 ± 0.095 for the first, -0.566 ± 0.15 for the second.

Going from E46P to E46Q, the abundance fitness rises from -0.817 ± 0.11 to -0.147 ± 0.15.

First: E46R
Second: E46S
The abundance fitness of the first is lower: -1.04 ± 0.072 for the first, -0.716 ± 0.083 for the second.

E46T and E46V are within error of each other in abundance fitness: -0.631 ± 0.11 for the first, -0.672 ± 0.073 for the second.

Compared with E46Y, K47A is higher in abundance fitness: -0.755 ± 0.19 for the first, -0.458 ± 0.079 for the second.

K47C and K47D are within error of each other in abundance fitness: -0.606 ± 0.093 for the first, -0.41 ± 0.11 for the second.

K47E and K47F are within error of each other in abundance fitness: -0.477 ± 0.11 for the first, -0.304 ± 0.12 for the second.

Going from K47H to K47I, the abundance fitness falls from -0.427 ± 0.16 to -0.972 ± 0.16.

K47L and K47M are within error of each other in abundance fitness: -0.605 ± 0.075 for the first, -0.497 ± 0.11 for the second.

Going from K47N to K47P, the abundance fitness rises from -0.718 ± 0.24 to -0.365 ± 0.093.

K47Q and K47R are within error of each other in abundance fitness: -0.236 ± 0.12 for the first, -0.142 ± 0.062 for the second.

K47S and K47T are within error of each other in abundance fitness: -0.46 ± 0.085 for the first, -0.447 ± 0.11 for the second.

K47V and K47W are within error of each other in abundance fitness: -0.644 ± 0.07 for the first, -0.765 ± 0.1 for the second.

K47Y and K48A are within error of each other in abundance fitness: -0.567 ± 0.14 for the first, -0.49 ± 0.076 for the second.

K48C and K48D are within error of each other in abundance fitness: -0.837 ± 0.23 for the first, -0.579 ± 0.14 for the second.

K48E and K48F are within error of each other in abundance fitness: -0.344 ± 0.11 for the first, -0.435 ± 0.21 for the second.

Going from K48G to K48H, the abundance fitness rises from -0.664 ± 0.077 to -0.335 ± 0.2.

K48I and K48L are within error of each other in abundance fitness: -0.047 ± 0.18 for the first, 0.122 ± 0.08 for the second.

Going from K48M to K48N, the abundance fitness falls from -0.01 ± 0.12 to -0.545 ± 0.16.

K48P and K48Q are within error of each other in abundance fitness: -0.306 ± 0.13 for the first, -0.161 ± 0.12 for the second.

Compared with K48R, K48T is lower in abundance fitness: -0.196 ± 0.078 for the first, -0.45 ± 0.1 for the second.

K48W and K48Y are within error of each other in abundance fitness: -0.532 ± 0.13 for the first, -0.259 ± 0.17 for the second.

First: Q49A
Second: Q49C
The abundance fitness of the first is higher: 0.112 ± 0.11 for the first, -0.239 ± 0.16 for the second.

Q49D and Q49E are within error of each other in abundance fitness: 0.021 ± 0.18 for the first, 0.294 ± 0.1 for the second.

Going from Q49F to Q49G, the abundance fitness rises from -0.636 ± 0.16 to -0.343 ± 0.072.

Q49H and Q49I are within error of each other in abundance fitness: -0.407 ± 0.2 for the first, -0.307 ± 0.18 for the second.

First: Q49K
Second: Q49L
The abundance fitness of the first is higher: -0.066 ± 0.2 for the first, -0.386 ± 0.086 for the second.

Q49N and Q49P are within error of each other in abundance fitness: -0.481 ± 0.21 for the first, -0.574 ± 0.11 for the second.

Q49R showed an abundance fitness of -0.116 ± 0.074.

— the Human Domainome abundance scans (Beltran et al. 2025)
